Several values for one entry are separate records, joined by “and”; a condition that tells them apart may be missing. Identical values can stand only once.
B1: AtNRP1 NT/CT (AtNRP1 residues 14-226) (domain or fragment, Arabidopsis thaliana, UniProt Q9CA59 14-226, looked up)
chain: KGEEENLEQIDAELVLSIEKLQEIQDDLEKINEKASDEVLEVEQKYNVIRKPVYDKRNEVIQSIPGFWMTAFLSHPALGDLLTEEDQKIFKYLNSLEVEDAKDVKSGYSITFHFTSNPFFEDAKLTKTFTFLEEGTTKITATPIKWKEGKGLPNGVNHDDKKGNKRALPEESFFTWFTDAQHKEDAGDEIHDEVADIIKEDLWSNPLTYFNND
notes: NAP1-related protein 1 (AtNRP1), Arabidopsis thaliana, residues 14-226, in pGEX-6P-1 between BamHI and SalI; A few vector residues may remain at the N-terminus after PreScission cleavage (surmise); also called AtNRP1_(14-226); GST-AtNRP1_(14-226); not shown: GST, N-terminal, cleaved
B2: full-length Arabidopsis thaliana NAP1-Related Protein 1 (AtNRP1-His) (natural protein, UniProt Q9CA59 1-256, looked up)
chain: MVADKSKKSKIEEKGEEENLEQIDAELVLSIEKLQEIQDDLEKINEKASDEVLEVEQKYNVIRKPVYDKRNEVIQSIPGFWMTAFLSHPALGDLLTEEDQKIFKYLNSLEVEDAKDVKSGYSITFHFTSNPFFEDAKLTKTFTFLEEGTTKITATPIKWKEGKGLPNGVNHDDKKGNKRALPEESFFTWFTDAQHKEDAGDEIHDEVADIIKEDLWSNPLTYFNNDADEEDFDGDDDGDEEGEEDDDDEEEEDGEE
notes: NAP1-related protein 1 (AtNRP1), Arabidopsis thaliana; full-length ORF optimised for bacterial expression (Genscript) in pET22b(+) between NdeI and XhoI; also called full-length AtNRP1; not shown: His6, C-terminal, kept
B3: AtNRP2 NT/CT (AtNRP2 residues 14-223) (domain or fragment, Arabidopsis thaliana, UniProt Q8LC68-2 14-223, looked up)
chain: ENVEQIDAELVLSIEKLQEIQDDLEKINEKASDEVLEVEQKYNVIRKPVYDKRNEIIKTIPDFWLTAFLSHPALGELLTEEDQKIFKYLSSLDVEDAKDVKSGYSITFSFNPNPFFEDGKLTKTFTFLEEGTTKITATPIKWKEGKGLANGVNHEKNGNKRALPEESFFTWFSDAQHKEDVEDEMQDEQVADIIKEDLWPNPLTYFNNDA
notes: NAP1-related protein 2 (AtNRP2), Arabidopsis thaliana, residues 14-223 (first 13 and last 35 residues removed), in pGEX-6P-1 between BamHI and SalI; A few vector residues may remain at the N-terminus after PreScission cleavage (surmise); Heated at 40 °C for 10 min before crystallization; also called AtNRP2_(14-223); GST-AtNRP2_(14-223); not shown: GST, N-terminal, cleaved
B4: full-length Arabidopsis thaliana NAP1-Related Protein 2 (AtNRP2-His) (natural protein, UniProt Q8LC68-2 1-256, looked up)
chain: MVTDKSKKAKTEEENVEQIDAELVLSIEKLQEIQDDLEKINEKASDEVLEVEQKYNVIRKPVYDKRNEIIKTIPDFWLTAFLSHPALGELLTEEDQKIFKYLSSLDVEDAKDVKSGYSITFSFNPNPFFEDGKLTKTFTFLEEGTTKITATPIKWKEGKGLANGVNHEKNGNKRALPEESFFTWFSDAQHKEDVEDEMQDEQVADIIKEDLWPNPLTYFNNDADEEDFDGDDDGDEEEKEGDSDEDDDEEDEVGEE
notes: NAP1-related protein 2 (AtNRP2), Arabidopsis thaliana; full-length ORF optimised for bacterial expression (Genscript) in pET22b(+) between NdeI and XhoI; Predominantly a dimer in solution; tetramer and a higher species also seen by AUC; also called full-length AtNRP2; not shown: His6, C-terminal, kept

Columns and labels:
[1] = molecular target: the molecule itself; assay: SAXS; ESRF BM29, samples at 5, 3 and 2 mg/mL, 10 °C; molecular mass estimated with ATSAS
[2] = molecular target: the molecule itself; assay: SEC; analytical gel filtration, Superdex 200 10/300 GL, 4 °C, 20 mM Tris-HCl with 0.2, 0.5 or 2.0 M NaCl after dialysis into the same buffer
[3] = molecular target: the molecule itself; assay: AUC; sedimentation velocity, 40,000 rpm, 20 °C, samples diluted in SEC buffer to OD280 0.5; c(s) distribution and non-interacting species model

| Protein | stoichiometry N [3] | further results |
| --- | --- | --- |
| B1 |  | stoichiometry N [1]: 2 |
| B2 |  | binding result [2]: binds |
| B3 | 2 |  |
| B4 | 2 and 4 |  |
